What was measured:
[1] = tested on: CAP70TAG azobenzyl-Phe mutant, trans (before irradiation) I70(azobenzyl-Phe) (Escherichia coli); test: EMSA; details: 20 uM cAMP, 25 C; approximate value; 4-fold lower than wt; same value recovered after switching back with light >=420 nm
[2] = tested on: CAP (catabolite activator protein) wild-type (Escherichia coli); test: EMSA; details: 20 uM cAMP, 10 mM Tris pH 7.5, 50 mM NaCl, 1 mM MgCl2, 25 C; approximate value
[3] = tested on: CAP70TAG azobenzyl-Phe mutant, irradiated at 334 nm (about 50% cis) I70(azobenzyl-Phe) (Escherichia coli); test: EMSA; details: 20 uM cAMP, 25 C; after 334 nm irradiation 40 min at 0 C, photostationary state about 50% cis
[4] = biological target: E. coli leucyl-tRNA synthetase (ecLRS) wild-type (Escherichia coli, UniProt P07813 SEQ:1-860); test: cell_activity; amber suppression of GAL4 (2 TAG) in S. cerevisiae, beta-galactosidase; printed as 104-fold increase (10^4) over either component alone
Chain of E. coli leucyl-tRNA synthetase (ecLRS) wild-type (P07813 whole entry, the tested form may be a part): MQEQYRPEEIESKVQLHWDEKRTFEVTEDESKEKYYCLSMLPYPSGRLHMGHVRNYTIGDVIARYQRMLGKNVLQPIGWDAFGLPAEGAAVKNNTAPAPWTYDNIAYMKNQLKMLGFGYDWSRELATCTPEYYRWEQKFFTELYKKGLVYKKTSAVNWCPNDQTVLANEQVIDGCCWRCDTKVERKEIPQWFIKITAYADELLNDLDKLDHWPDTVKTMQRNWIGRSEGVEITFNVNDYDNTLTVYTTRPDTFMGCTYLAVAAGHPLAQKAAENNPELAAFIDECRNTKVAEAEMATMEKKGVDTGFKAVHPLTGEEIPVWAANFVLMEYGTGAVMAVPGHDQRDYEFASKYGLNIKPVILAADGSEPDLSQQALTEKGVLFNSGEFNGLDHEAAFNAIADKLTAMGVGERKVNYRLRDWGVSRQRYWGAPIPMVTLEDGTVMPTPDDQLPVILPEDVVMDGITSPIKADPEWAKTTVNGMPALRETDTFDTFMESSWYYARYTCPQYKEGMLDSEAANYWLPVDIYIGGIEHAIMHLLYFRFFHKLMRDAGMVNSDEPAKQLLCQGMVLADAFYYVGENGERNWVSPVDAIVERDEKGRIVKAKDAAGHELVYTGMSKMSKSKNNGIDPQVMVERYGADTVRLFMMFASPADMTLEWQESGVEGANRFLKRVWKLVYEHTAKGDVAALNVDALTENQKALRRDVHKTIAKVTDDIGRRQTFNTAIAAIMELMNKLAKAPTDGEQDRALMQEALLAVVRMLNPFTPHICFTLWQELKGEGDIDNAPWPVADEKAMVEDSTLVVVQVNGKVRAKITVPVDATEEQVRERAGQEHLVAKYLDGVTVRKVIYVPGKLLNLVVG
From the text: The orthogonality of the E. coli leucyl suppressor tRNACUA (Leu5CUA) (FIG. 1A), which has U35 and A37 in the anticodon loop, and the corresponding ecLRS was examined in vivo in a selection strain of S. cerevisiae [MaV203:pGADGAL4(2 TAG)]. See Chin, et al., Science, 2003, 301:964-7. This strain harbors the transcriptional activator GAL4 with amber codons at two permissive sites (Thr44 and Arg110). Efficient suppression at both sites leads to expression of three reporter genes: lacZ, his3, and ura3. In the presence of either Leu5CUA or ecLRS alone, no significant β-galactosidase activity was detected above the residual activity in lysates from […] cells. […] See ibid.

Molecule: 118 bp lac promoter fragment with primary CAP site
- Ka [1]: 4e+06 M⁻¹
- Ka [2]: 1.6e+07 M⁻¹
- Ka [3]: 1e+06 M⁻¹

B1: Leu5CUA amber suppressor tRNA (ssRNA)
RNA: GCCCGGAUGGUGGAAUCGGUAGACACAAGGGAUUCUAAAUCCCUCGGCGUUCGCGCUGUGCGGGUUCAAGUCCCGCUCCGGGUACCA
- activity [4]: > 10000 fold
